In test [1] the target is T1, HLA-A2.01 molecule (Homo sapiens, UniProt P04439, D140Y/D185E/D98H/E176V/E277Q/G131W/G231S/I119V/I121R/I166T/I218V/L300P/L318F/N151K/N90K/P208A/P217A/Q86G/Q94H/R138H/R169H/T345S).
T1 construct: stability conferred on the peptide MHC complex thus formed at the cell surface by using tap T2 cells expressing HLA-A*02.01; endogenous in cells; host or cells: T2 cells
The test is described as follows: Inhibition of binding of 125I-F10V (HBVc.18-27) to soluble HLA-A2.01 molecules. The method, then:
The product of the chimeric genes resulting from the translocation (12;21) is a neoprotein which is expressed in the leukemic cells of common B-ALL type and which can be detected by Western blot. […] In a first step, the capacity of 9 junctional nonapeptides to inhibit the binding to soluble HLA-A*0201 was measured.

The target of test [2] is T1, HLA-A2.01 molecule. The test is described as follows: Stabilization of HLA-A2.01 molecules at the surface of T2 cells (RA and DC50). Particulars: for Measurement of stabilization DC50 (half-life of peptide-HLA-A2.1 stabilized complexes): overnight incubation, indirect immunofluorescence/FACS at 0, 2, 4 and 5 h; for Measurement of stabilization RA: ratio of concentrations of tested versus reference peptide to attain 20% of maximal number of stabilized molecules. The class given is binding. An excerpt: A person well-acquainted with the field of the invention will know how to obtain different mutated and derived peptides and will also know how to determine which of all of the peptides obtained are the peptides having adequate biological activity. […] The term DC50 characterizing the half-life of the peptide HLA-A2.01 complex is described in the publication “H-2 class 1 knockout, HLA-A2.1-transgenic mice: a versatile animal model for preclinical evaluation of antitumor immunotherapeutic strategies” (European Journal of Immunology: 29:3112-21, 1999). This half-life ought normally to make it capable of inducing in vivo or in vitro a cytotoxic immune response. Preferably, the peptide obtained will slow down the growth of lymphoblastic tumor cells when administered to a leukemic receiver and will trigger a cytotoxic T response to the leukemic cells of common type B-ALL with t(12;21) of the leukemic receiver.
It is known that the affinity of an epitopic peptide for the MHC predicts in part its immunogenic potential. This affinity can be measured by its binding capacity to class I MHC and by the stability conferred on the peptide MHC complex thus formed at the cell surface by using tap T2 cells expressing HLA-A*02.01.
These preliminary results have subsequently been used to optimize further the R9M peptide. […] The binding tests performed in vitro by using the soluble HLA-A2.01 molecules and T2 cells have shown that the binding to and the stabilization capacity for the HLA-A2.01 molecules was greater than that of the wildtype R9M peptide (Table 2).

The test system of a further test is TEL/AML+ EL4-HHD cells. The test is described as follows: Tertiary CTL response of immunized HHD mice against TEL/AML+ EL4-HHD cells. The settings on record: responder = at least 10% specific lysis, TEL/AML+ EL4-HHD targets. The test is classed as in vivo. An excerpt:
(§1) The immunogenicity of the mutated peptides was then studied in the HHD transgenic mouse (H2 class 1—negative and transgenic for HLA-A*02.01). These mice are described in European Journal of Immunology, 29:3112-21, 1999. Groups of more than 10 HHD mice were immunized by the synthetic peptides (emulsion in IFA with the helper peptide HBVcore128-140 as described previously in Firat et al., Eur. J. Immunol. 29:3112-21 (1999)).
(§2) On the other hand, the mutated peptides (having single or double substitutions) induce a strong CTL activity and lyse the TEL AML* tumor lines in the majority of cases (Table 3 and Table 4). The enhanced immunogenicity of the mutated R9M peptides was then confirmed in vitro by using mononucleated cells of 5 healthy HLA-A*02.01 subjects (FIG. 2).

Test [3] has as its system RMAS-HHD cells stimulated with the mutated peptide. Nature of the test: Tertiary CTL response of immunized HHD mice against RMAS-HHD cells stimulated with the mutated peptide. The test is classed as in vivo. Particulars: for R/T (mice responders versus total of mice tested): responder = at least 10% specific lysis, targets with mutated peptide.
Text: as §1, §2

Test [4] concerns RMAS-HHD cells stimulated with the wildtype peptide. The test is described as follows: Secondary CTL response of immunized HHD mice against RMAS-HHD cells stimulated with the wildtype peptide. The test is classed as in vivo. The settings on record: responder = at least 10% specific lysis, targets with wildtype peptide.
Text: as §1, §2

In test [5] the test system is EL4 S3-Rob-HHD cells expressing the TEL/AML1 fusion protein. Nature of the test: Tumor model in HHD mice immunized with peptide and injected with tumor cells. Particulars: groups of 8 HHD mice immunized beforehand; for development of tumors (in words): FIG. 3; for survival of the mice (in words): FIG. 4.
The test system of test [6] is RMAS-HHD cells stimulated with the mutated peptide. The test is described as follows: Secondary CTL response of immunized HHD mice against RMAS-HHD cells stimulated with the mutated peptide. The class given is in vivo. The settings on record: for R/T (mice responders versus total of mice tested): responder = at least 10% specific lysis.
Text: as §1, §2

The next test has as its system HLA-A2.1*T2 target cells. Particulars: results in the public domain; cited from earlier work.
The mark [7] stands for this setting: secondary response, targets with mutated peptide.

Where “and” joins values, the source holds several entries; their conditions need not be identical. Equal entries are not always repeated. Entries after “also recorded” stand apart in the source; their conditions may differ. Marks after values point to notes of the source that are not given here. Non-standard residues stand in square brackets, D forms with d. No end group written: not given here. Abu = CC[C@H](N)C(=O)O Where only a bound is given, the exact number is not on record here.

As for AMPIGRIAE [A9E], in the test with HLA-A2.01 molecule [1], the “percentage inhibition of the binding of F10V, ratio peptide/125I-F10V 10/1” value was 47^d % and the “percentage inhibition of the binding of F10V, ratio peptide/125I-F10V 25/1” value is listed as 57%. Besides, in the test with HLA-A2.01 molecule [2], the “Measurement of stabilization DC50 (half-life of peptide-HLA-A2.1 stabilized complexes)” value (“Measurement of stabilization DC50” below) is 2 to 4 h and the “Measurement of stabilization RA” value is 10-100.

Take “ILKEPVHGV [HIV 1 rt.476, reference compound]”: on HLA-A2.01 molecule [2], the “Measurement of stabilization DC50” value was found to be 5 h and the “Measurement of stabilization RA” value stood at 1.

As for PIGRIAECI [P91], in the test with HLA-A2.01 molecule [2], the “Measurement of stabilization DC50” value was determined as 0 h and the “Measurement of stabilization RA” value is over 100.

As to RIAEAILGM [R9M-5A], the “R/T (mice responders versus total of mice tested)” value in the test on TEL/AML+ EL4-HHD cells is reported as 6/10. Moreover, in the test with HLA-A2.01 molecule [1], the “percentage inhibition of the binding of F10V, ratio peptide/125I-F10V 10/1” value turned out to be 59% and the “percentage inhibition of the binding of F10V, ratio peptide/125I-F10V 25/1” value came to 72%. For the same substance, the “% of clear lysis (maximal lysis for each mouse responder)” value in test [3] (E/T ratio 60:1, targets with mutated peptide) is reported as “(20) %”. For the same substance, the “R/T (mice responders versus total of mice tested)” value in test [3] is given as 1/10. In test [4], the “R/T (mice responders versus total of mice tested)” value is given as 2/10. Besides, in the test with HLA-A2.01 molecule [2], the “Measurement of stabilization DC50” value was under 2 h and the “Measurement of stabilization RA” value is recorded as 3.2. In test [5], the “development of tumors (in words)” value was “capable of slowing down the development of tumors” and the “survival of the mice (in words)” value is “prolonging the survival of the mice”. For the same substance, in test [6] (setting [7]), the “R/T (mice responders versus total of mice tested)” value is 2/10.

Turning to “RIAECILGM (listed as Homo sapiens) [R9M, reference compound]”, the “R/T (mice responders versus total of mice tested)” value with TEL/AML+ EL4-HHD cells is reported as 5/10. For the same substance, in the test with HLA-A2.01 molecule [1], the “percentage inhibition of the binding of F10V, ratio peptide/125I-F10V 10/1” value is recorded as 64% and the “percentage inhibition of the binding of F10V, ratio peptide/125I-F10V 25/1” value is on record as 69%. Moreover, the “R/T (mice responders versus total of mice tested)” value in test [3] is given as 2/10. Besides, in the test with HLA-A2.01 molecule [2], the “stability of the peptide/HLA-A2.01 complex at the surface of T2 cells (in words)” value is “quite unstable; also recorded: not very stable”, the “Measurement of stabilization DC50” value is listed as under 2 h and the “Measurement of stabilization RA” value was 2.9. The “capacity to induce CTLs from the peripheral blood of healthy donors (in words)” value in the test with HLA-A2.1*T2 target cells is “has been demonstrated”. Besides, in test [6] (secondary response, E/T ratio 60:1, targets with mutated peptide), the “% of clear lysis (maximal lysis for each mouse responder)” value was “(13) %”. The “R/T (mice responders versus total of mice tested)” value in test [6] (setting [7]) is on record as 1/18. Further, in test [6] (synthetic peptide in IFA with helper peptide HBVcore128-140), the “CTL response induced in immunized HLA-A2.01 transgenic (HHD) mice (in words)” value was “inconstancy and the weakness of the CTL responses induced; also recorded: inconstancy and weakness of the CTL responses induced; also recorded: weak specific CTL response”.

With RIAESILGM [R9M-5S], the “R/T (mice responders versus total of mice tested)” value is reported as 11/14 in the test on TEL/AML+ EL4-HHD cells, 6/10 in test [3], 6/14 in test [4] and 11/14 in test [6] (setting [7]). Moreover, the “percentage inhibition of the binding of F10V, ratio peptide/125I-F10V 10/1” value in the test with HLA-A2.01 molecule [1] stood at 74%. Also, the “percentage inhibition of the binding of F10V, ratio peptide/125I-F10V 25/1” value with HLA-A2.01 molecule [1] came to 75%. The “Measurement of stabilization DC50” value with HLA-A2.01 molecule [2] is 2 h. In addition, the “Measurement of stabilization RA” value with HLA-A2.01 molecule [2] is reported as 2.2. Besides, in test [5], the “development of tumors (in words)” value is on record as “capable of slowing down the development of tumors”. Also, the “survival of the mice (in words)” value in test [5] was “prolonging the survival of the mice”.

Regarding “RIAEα-butILGM (RIAE[Abu]ILGM) [R9M-5α-but]”, the “R/T (mice responders versus total of mice tested)” value in the test on TEL/AML+ EL4-HHD cells (listed as R9M-5a-but) was 7/10 and 10/10; in test [3], 8/10; in test [4] (listed as R9M-5a-but) it was 5/10 and 8/10; in test [6] (secondary response, targets with mutated peptide, listed as R9M-5a-but), 7/10 and 8/10. The “percentage inhibition of the binding of F10V, ratio peptide/125I-F10V 10/1” value in the test with HLA-A2.01 molecule [1] is on record as 27%. The “percentage inhibition of the binding of F10V, ratio peptide/125I-F10V 25/1” value in the test with HLA-A2.01 molecule [1] was found to be 49%. Besides, the “Measurement of stabilization DC50” value in the test with HLA-A2.01 molecule [2] came out at 2 h. For the same substance, in the test with HLA-A2.01 molecule [2], the “Measurement of stabilization RA” value is 2. In test [5], the “development of tumors (in words)” value is “capable of slowing down the development of tumors”. Moreover, the “survival of the mice (in words)” value in test [5] is on record as “prolonging the survival of the mice”.

Consider YIAEAILGM [Y9M-5A], for which the “R/T (mice responders versus total of mice tested)” value was 5/10 in the test with TEL/AML+ EL4-HHD cells, 9/10 in test [3], 7/10 in test [4] and 8/10 in test [6] (setting [7]). Besides, the “percentage inhibition of the binding of F10V, ratio peptide/125I-F10V 10/1” value in the test with HLA-A2.01 molecule [1] stood at 79%. Moreover, the “percentage inhibition of the binding of F10V, ratio peptide/125I-F10V 25/1” value in the test with HLA-A2.01 molecule [1] is recorded as 87%. The “Measurement of stabilization DC50” value with HLA-A2.01 molecule [2] was 2 to 5 h. Further, the “Measurement of stabilization RA” value in the test with HLA-A2.01 molecule [2] was 0.9.

For the substance YIAECILGM [Y9M], in the test with HLA-A2.01 molecule [2], the “Measurement of stabilization DC50” value is listed as under 2 h and the “Measurement of stabilization RA” value is recorded as over 100.

Regarding YIAESILGM [Y9M-5S], the “R/T (mice responders versus total of mice tested)” value in the test with TEL/AML+ EL4-HHD cells is recorded as 6/10; in test [3], 9/10; in test [4], 3/10; in test [6] (setting [7]) it was 9/10. Moreover, in the test with HLA-A2.01 molecule [1], the “percentage inhibition of the binding of F10V, ratio peptide/125I-F10V 10/1” value turned out to be 25%. Further, the “percentage inhibition of the binding of F10V, ratio peptide/125I-F10V 25/1” value with HLA-A2.01 molecule [1] amounted to 37%. In the test with HLA-A2.01 molecule [2], the “Measurement of stabilization DC50” value is 2 to 5 h. Further, in the test with HLA-A2.01 molecule [2], the “Measurement of stabilization RA” value was 1.4.

Turning to “YIAEα-butILGM (YIAE[Abu]ILGM) [Y9M-5α-but]”, in the test with HLA-A2.01 molecule [1], the “percentage inhibition of the binding of F10V, ratio peptide/125I-F10V 10/1” value came out at 26% and the “percentage inhibition of the binding of F10V, ratio peptide/125I-F10V 25/1” value is listed as 26%. In the test with HLA-A2.01 molecule [2], the “Measurement of stabilization DC50” value lay within 2 to 5 h and the “Measurement of stabilization RA” value was 0.7.

Take YIGRIAECI [Y9I]: in the test with HLA-A2.01 molecule [2], the “Measurement of stabilization DC50” value was under 2 h and the “Measurement of stabilization RA” value was over 100.

Consider YMPIGRIAE [Y9E], for which, in the test with HLA-A2.01 molecule [2], the “Measurement of stabilization DC50” value stood at 0 h and the “Measurement of stabilization RA” value is reported as over 100.
